Legend:
CD19 on Raji B cells = molecular target: T1, CD19 on Raji B cells (UniProt P15391 20-556, limits assumed); experiment: FACS on Raji cells (CD19)
T1 construct: whole, on cells; also called Raji CD19 B cells
T1 sequence (looked up): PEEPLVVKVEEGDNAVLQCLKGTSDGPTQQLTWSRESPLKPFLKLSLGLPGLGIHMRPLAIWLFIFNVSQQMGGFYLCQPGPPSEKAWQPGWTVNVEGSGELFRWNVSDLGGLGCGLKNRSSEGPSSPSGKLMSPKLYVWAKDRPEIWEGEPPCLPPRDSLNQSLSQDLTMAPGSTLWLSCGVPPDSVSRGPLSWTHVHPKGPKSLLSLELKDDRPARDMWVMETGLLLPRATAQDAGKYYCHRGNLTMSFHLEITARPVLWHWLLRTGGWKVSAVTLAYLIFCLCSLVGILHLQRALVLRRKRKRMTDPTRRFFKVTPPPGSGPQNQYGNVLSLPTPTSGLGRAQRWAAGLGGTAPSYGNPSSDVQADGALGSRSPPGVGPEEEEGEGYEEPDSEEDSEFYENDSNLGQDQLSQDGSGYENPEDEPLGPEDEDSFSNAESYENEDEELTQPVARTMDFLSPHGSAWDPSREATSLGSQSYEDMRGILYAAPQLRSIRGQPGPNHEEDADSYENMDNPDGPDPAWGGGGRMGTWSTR

Human FcRn (hFcRn) = molecular target: T2, Human FcRn (hFcRn) (human, UniProt P55899 24-297; P61769 21-119, limits assumed); experiment: SPR, hFcRn immobilized, v1378 flowed over at pH 6.0
T2 construct: also called neonatal Fc receptor
T2 sequence (P55899 24-297 limits assumed, chain 1 of 2): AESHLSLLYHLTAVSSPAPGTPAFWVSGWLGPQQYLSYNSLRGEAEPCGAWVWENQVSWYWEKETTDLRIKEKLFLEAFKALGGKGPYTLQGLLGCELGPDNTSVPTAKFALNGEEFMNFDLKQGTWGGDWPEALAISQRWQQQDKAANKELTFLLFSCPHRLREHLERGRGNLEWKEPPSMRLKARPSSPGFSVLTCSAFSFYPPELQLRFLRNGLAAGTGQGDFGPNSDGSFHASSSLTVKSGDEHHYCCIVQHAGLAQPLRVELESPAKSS
T2 sequence (P61769 21-119 limits assumed, chain 2 of 2): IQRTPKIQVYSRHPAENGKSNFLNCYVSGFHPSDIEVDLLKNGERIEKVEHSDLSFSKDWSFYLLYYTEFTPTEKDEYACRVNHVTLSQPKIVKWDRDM
Source text: Methods are identical to Example 2, except the directionality of the assay was reversed.

[1] = molecular target: the molecule itself; experiment: native gel after co-expression (1:1 DNA level)

B1: V1093 (bispecific antibody)
anti-CD19 scFv fused to the N terminus of transporter polypeptide 1 (albumin 1-337): DIQLTQSPASLAVSLGQRATISCKASQSVDYDGDSYLNWYQQIPGQPPKLLIYDASNLVSGIPPRFSGSGSGTDFTLNIHPVEKVDAATYHCQQSTEDPWTFGGGTKLEIKGGGGSGGGGSGGGGSQVQLQQSGAELVRPGSSVKISCKASGYAFSSYWMNWVKQRPGQGLEWIGQIWPGDGDTNYNGKFKGKATLTADESSSTAYMQLSSLASEDSAVYFCARRETTTVGRYYYAMDYWGQGTTVTVSSGGSDAHKSEVAHRFKDLGEENFKALVLIAFAQYLQQCPFEDHVKLVNEVTEFAKTCVADESAENCDKSLHTLFGDKLCTVATLRETYGEMADCCAKQEPERNECFLQHKDDNPNLPRLVRPEVDVMCTAFHDNEETFLKKYLYEIARRHPYFYAPELLFFAKRYKAAFTECCQAADKAACLLPKLDELRDEGKASSAKQRLKCASLQKFGERAFKAWAVARLSQRFPKAEFAEVSKLVTDLTKVHTECCHGDLLECADDRADLAKYICENQDSISSKLKECCEKPLLEKSHCIAEVENDEMPADLPSLAADFVESKDVCKNYAEAKDVFLGMFLYEYARA
transporter polypeptide 2 (albumin 342-585) with anti-CD3 scFv at the C terminus: not shown
For B1, the Kd (CD19 on Raji B cells) was 49 nM.

B2: v1378: AlbuCORE_1 (ABH2) with anti-HER3 at the N terminus of fragment 1 and anti-HER2 (4D5) at the N terminus of fragment 2 (bispecific antibody)
chain 1: QVQLQESGGGLVKPGGSLRLSCAASGFTFSSYWMSWVRQAPGKGLEWVANINRDGSASYYVDSVKGRFTISRDDAKNSLYLQMNSLRAEDTAVYYCARDRGVGYFDLWGRGTLVTVSSASTGGGGSGGGGSGGGGSQSALTQPASVSGSPGQSITISCTGTSSDVGGYNFVSWYQQHPGKAPKLMIYDVSDRPSGVSDRFSGSKSGNTASLIISGLQADDEADYYCSSYGSSSTHVIFGGGTKVTVLGGGSDAHKSEVAHRFKDLGEENFKALVLIAFAQYLQQCPFEDHVKLVNEVTEFAKTCVADESAENCDKSLHTLFGDKLCTVATLRETYGEMADCCAKQEPERNECFLQHKDDNPNLPRLVRPEVDVMCTAFHDNEETFLKKYLYEIARRHPYFYAPELLFFAKRYKAAFTECCQAADKAACLLPKLDELRDEGKASSAKQRLKCASLQKFGERAFKAWAVARLSQRFPKAEFAEVSKLVTDLTKVHTECCHGDLLECADDRADLAKYICENQDSISSKLKECCEKPLLEKSHCIAEVENDEMPADLPSLAADFVESKDVCKNYAEAKDVFLGMFLYEYARA
chain 2: not shown
notes: also called variant 1378; anti-Her3xHer2 ABH2
For B2, the Kd (Human FcRn (hFcRn)) was 970 nM.

B3: Albumin based Transporter polypeptide 1-Ver 1 (ABH1 fragment, albumin 1:293) (other)
chain: DAHKSEVAHRFKDLGEENFKALVLIAFAQYLQQCPFEDHVKLVNEVTEFAKTCVADESAENCDKSLHTLFGDKLCTVATLRETYGEMADCCAKQEPERNECFLQHKDDNPNLPRLVRPEVDVMCTAFHDNEETFLKKYLYEIARRHPYFYAPELLFFAKRYKAAFTECCQAADKAACLLPKLDELRDEGKASSAKQRLKCASLQKFGERAFKAWAVARLSQRFPKAEFAEVSKLVTDLTKVHTECCHGDLLECADDRADLAKYICENQDSISSKLKECCEKPLLEKSHCIAEV
notes: also called ABH1 transporter polypeptide A; ABH1 fragment 1
B3: no binding [1].
